Experimental data as given in patent US7833513B2, “Treatment of Alzheimer's Disease” (Rhode Island Hospital, priority 2004, dated 2010).

Biological target: T1, IGF-II receptor (Homo sapiens, UniProt P11717)
T1 construct: membrane extracts of postmortem frontal lobe tissue as the sources of receptors; from tissue; host or cells: postmortem frontal lobe tissue, homogenates pooled per Braak stage group
Experiment: Saturation binding (Scatchard) of [125I]-IGF-II to postmortem frontal lobe membrane extracts by AD Braak stage
Set-up: unit not given here
Description: Protein concentration was determined using the bicinchoninic acid (BCA) assay (Pierce, Rockford, Ill.). Preliminary studies determined the amounts of protein and concentrations of radiolabeled ligand required to achieve 20% specific binding.
IGF-I binding assays required 25 μg protein per sample, and IGF-II receptor binding assays were performed with 10 μg protein. Equilibrium binding assays were used to assess growth factor binding levels in relation to AD stage severity. This was accomplished by determining net specific binding after incubating the protein samples at 4° C. overnight with a fixed amount of radioligand, in the presence or absence of excess cold ligand and then subtracting the values obtained for non-specific binding from those corresponding to the total binding. To measure total binding, individual protein samples were incubated in 100 μl reactions containing binding buffer (100 mM HEPES, pH 8.0, 118 mM NaCl, 1.2 mM MgSO4, 8.8 mM dextrose, 5 mM KCl, 1% bovine serum albumin) and 100 nCi/ml [^125I] […] To measure non-specific binding, replicate samples were prepared as indicated with the addition of 0.1 μM unlabeled (cold) ligand.
Saturation binding assays were performed to assess top-level (maximum) binding and binding affinity in relation to AD stage severity. Samples from 8-12 brains per Braak stage group were pooled in equal proportions and used to generate binding curves. Protein concentrations of the pooled homogenates were determined with the BCA assay. Duplicate samples were incubated in 100 μl reaction volumes containing binding buffer and 0.0031 to 1 μCi/ml of [^125I] […] To measure non-specific binding, duplicate reactions were incubated with the same concentrations of radiolabeled ligand plus 0.1 μM unlabeled (cold) competitive ligand. The data were graphed and analyzed using the GraphPad Prism 4 software to calculate the Bmax, kD (dissociation constant), and their standard deviations and 95% confidence intervals.
Reactions were performed in 1.5 ml Eppendorff tubes at 4° C. for 16 hours with gentle platform agitation. […] The samples were counted for 1 minute each in an LKB CompuGamma CS Gamma counter. Specific binding was calculated by subtracting CPM or fmol of non-specific binding, i.e., amount bound in the presence of cold ligand, from the total CPM or fmol bound (absence of unlabeled competitive ligand). After determining that the data fit a one-site rather than a two-site model, the results were analyzed using non-linear regression to calculate saturation binding (Bmax) and binding affinity (kD) with Scatchard analysis performed to measure saturation binding and binding affinity using GraphPad Prism 4 software (GraphPad Software, Inc., San Diego, Calif.).

T1 sequence (P11717 41-2491): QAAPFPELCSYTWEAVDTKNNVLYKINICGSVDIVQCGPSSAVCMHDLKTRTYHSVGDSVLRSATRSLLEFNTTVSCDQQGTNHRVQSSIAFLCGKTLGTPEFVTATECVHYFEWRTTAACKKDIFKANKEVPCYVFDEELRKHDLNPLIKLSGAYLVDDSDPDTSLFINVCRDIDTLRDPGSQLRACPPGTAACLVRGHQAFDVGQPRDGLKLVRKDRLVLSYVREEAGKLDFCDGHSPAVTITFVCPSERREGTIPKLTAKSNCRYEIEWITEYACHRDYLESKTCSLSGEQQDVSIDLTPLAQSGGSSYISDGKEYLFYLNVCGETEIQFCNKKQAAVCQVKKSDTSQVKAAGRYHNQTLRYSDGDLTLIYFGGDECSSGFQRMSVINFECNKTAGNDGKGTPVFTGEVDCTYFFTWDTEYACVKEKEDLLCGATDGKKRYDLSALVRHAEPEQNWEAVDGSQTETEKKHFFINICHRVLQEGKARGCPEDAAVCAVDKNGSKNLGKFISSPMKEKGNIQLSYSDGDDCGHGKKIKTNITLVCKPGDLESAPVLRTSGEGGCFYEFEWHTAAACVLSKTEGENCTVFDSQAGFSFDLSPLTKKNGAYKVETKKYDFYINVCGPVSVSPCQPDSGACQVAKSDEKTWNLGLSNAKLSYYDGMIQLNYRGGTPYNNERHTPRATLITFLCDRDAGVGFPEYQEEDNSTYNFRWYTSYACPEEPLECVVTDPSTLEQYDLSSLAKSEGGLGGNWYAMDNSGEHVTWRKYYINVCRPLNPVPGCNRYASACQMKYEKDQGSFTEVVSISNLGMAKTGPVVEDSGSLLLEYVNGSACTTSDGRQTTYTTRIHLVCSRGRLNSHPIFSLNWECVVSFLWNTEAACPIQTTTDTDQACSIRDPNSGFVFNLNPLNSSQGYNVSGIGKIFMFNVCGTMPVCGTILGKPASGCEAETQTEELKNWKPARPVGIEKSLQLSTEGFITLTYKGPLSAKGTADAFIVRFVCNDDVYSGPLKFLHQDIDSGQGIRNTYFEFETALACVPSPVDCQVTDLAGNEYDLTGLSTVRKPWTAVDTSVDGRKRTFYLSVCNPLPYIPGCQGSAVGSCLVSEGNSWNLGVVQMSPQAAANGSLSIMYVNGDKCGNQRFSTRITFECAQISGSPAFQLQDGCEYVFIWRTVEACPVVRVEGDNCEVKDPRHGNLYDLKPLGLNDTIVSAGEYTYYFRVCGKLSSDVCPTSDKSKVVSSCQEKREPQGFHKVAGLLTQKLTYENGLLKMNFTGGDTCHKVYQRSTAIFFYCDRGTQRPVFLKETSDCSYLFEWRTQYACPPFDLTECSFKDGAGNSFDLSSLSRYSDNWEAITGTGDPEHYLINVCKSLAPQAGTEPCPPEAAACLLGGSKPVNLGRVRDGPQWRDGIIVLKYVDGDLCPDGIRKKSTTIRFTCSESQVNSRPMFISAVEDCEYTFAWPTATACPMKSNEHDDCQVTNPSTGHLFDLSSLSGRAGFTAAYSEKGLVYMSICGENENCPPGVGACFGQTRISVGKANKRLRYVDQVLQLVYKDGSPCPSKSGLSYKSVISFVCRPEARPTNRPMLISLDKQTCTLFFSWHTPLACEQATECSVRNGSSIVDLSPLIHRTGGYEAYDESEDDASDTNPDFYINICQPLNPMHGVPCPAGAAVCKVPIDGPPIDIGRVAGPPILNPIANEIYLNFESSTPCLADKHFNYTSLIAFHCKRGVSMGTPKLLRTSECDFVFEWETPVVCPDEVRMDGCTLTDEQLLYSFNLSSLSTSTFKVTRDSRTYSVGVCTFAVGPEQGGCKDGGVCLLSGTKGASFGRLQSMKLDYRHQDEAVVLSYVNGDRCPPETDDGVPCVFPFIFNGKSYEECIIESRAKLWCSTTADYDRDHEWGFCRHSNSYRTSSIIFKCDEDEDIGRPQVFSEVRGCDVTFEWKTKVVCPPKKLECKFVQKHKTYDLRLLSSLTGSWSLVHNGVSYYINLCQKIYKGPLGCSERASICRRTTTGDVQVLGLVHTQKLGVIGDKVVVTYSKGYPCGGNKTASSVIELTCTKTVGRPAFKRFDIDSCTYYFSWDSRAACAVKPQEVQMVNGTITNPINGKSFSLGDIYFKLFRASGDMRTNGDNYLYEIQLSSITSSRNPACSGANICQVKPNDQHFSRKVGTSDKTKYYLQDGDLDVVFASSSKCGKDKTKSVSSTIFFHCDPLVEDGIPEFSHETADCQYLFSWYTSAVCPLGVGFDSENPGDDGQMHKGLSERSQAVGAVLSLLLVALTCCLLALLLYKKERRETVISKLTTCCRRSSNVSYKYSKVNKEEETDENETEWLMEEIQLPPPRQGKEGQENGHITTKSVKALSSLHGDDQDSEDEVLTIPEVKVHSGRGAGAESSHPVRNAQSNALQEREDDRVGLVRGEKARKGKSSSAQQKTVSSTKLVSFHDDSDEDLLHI

BMAX, IGF-II binding (Braak 0-1): 16.83
BMAX, IGF-II binding (Braak 2-3): 12.53
BMAX, IGF-II binding (Braak 4-5): 8.136
BMAX, IGF-II binding (Braak 6): 4.713
Substance: IGF-II: [125I]-labeled IGF-II used as tracer in brain membrane binding assays
